In article PMC6212786 (Nucleic Acids Research, 2018):

B1: T4 sliding clamp gp45, full length (trimer) (natural protein, bacteriophage T4, UniProt P04525 1-228, looked up)
chain: MKLSKDTTALLKNFATINSGIMLKSGQFIMTRAVNGTTYAEANISDVIDFDVAIYDLNGFLGILSLVNDDAEISQSEDGNIKIADARSTIFWPAADPSTVVAPNKPIPFPVASAVTEIKAEDLQQLLRVSRGLQIDTIAITVKEGKIVINGFNKVEDSALTRVKYSLTLGDYDGENTFNFIINMANMKMQPGNYKLLLWAKGKQGAAKFEGEHANYVVALEADSTHDF

Columns and labels:
[1] = biological target: T1, Full-length wild-type T4 DNA ligase (gp30) (bacteriophage T4, UniProt P00970 1-487); test: SEC
T1 sequence (looked up): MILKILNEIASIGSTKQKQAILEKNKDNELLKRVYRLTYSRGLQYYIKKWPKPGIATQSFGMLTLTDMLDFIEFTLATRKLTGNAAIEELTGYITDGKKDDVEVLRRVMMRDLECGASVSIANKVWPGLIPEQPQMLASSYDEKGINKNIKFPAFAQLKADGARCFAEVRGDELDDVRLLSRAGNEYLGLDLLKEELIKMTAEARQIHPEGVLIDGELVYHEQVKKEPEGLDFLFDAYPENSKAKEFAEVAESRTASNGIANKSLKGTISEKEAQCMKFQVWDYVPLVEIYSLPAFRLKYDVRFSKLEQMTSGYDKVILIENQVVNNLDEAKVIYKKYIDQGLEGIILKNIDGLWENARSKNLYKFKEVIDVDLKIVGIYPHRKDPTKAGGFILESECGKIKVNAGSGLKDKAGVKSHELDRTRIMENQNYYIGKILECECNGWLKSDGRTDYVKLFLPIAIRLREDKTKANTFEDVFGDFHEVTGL

[2] = biological target: B1; test: ITC

Binder	binding result [1]	Kd [2] [µM]	stoichiometry N [2] [peptides per gp45 trimer]
B1	binds		
KKEPEGLDFLFDA [T4 ligase loop peptide KKEPEGLDFLFDA]		10.7	3
